± gives the standard deviation of the averaged measurements.
Test: total protein half-life in vivo (active degradation + dilution); higher = more stable protein
[1] = E. coli NCM3722 delta-clpP delta-lon delta-hslV, growth: N-lim chemostat, doubling time 6 h
[2] = E. coli NCM3722 delta-clpP, growth: N-lim chemostat, doubling time 6 h
[3] = E. coli NCM3722 delta-hslV, growth: N-lim chemostat, doubling time 6 h
[4] = E. coli NCM3722 delta-lon, growth: N-lim chemostat, doubling time 6 h
[5] = E. coli NCM3722 delta-smpB, growth: N-lim chemostat, doubling time 6 h
[6] = wild type E. coli NCM3722, growth: C-lim chemostat, doubling time 3 h
[7] = wild type E. coli NCM3722, growth: C-lim chemostat, doubling time 6 h
[8] = wild type E. coli NCM3722, growth: C-lim chemostat, doubling time 12 h
[9] = wild type E. coli NCM3722, growth: N-lim chemostat, doubling time 6 h
[10] = wild type E. coli NCM3722, growth: N-lim chemostat, doubling time 12 h
[11] = wild type E. coli NCM3722, growth: P-lim chemostat, doubling time 6 h
[12] = wild type E. coli NCM3722, growth: P-lim chemostat, doubling time 12 h

Sequence | total protein half-life in vivo [1] | total protein half-life in vivo [2] | total protein half-life in vivo [3] | total protein half-life in vivo [4] | total protein half-life in vivo [5] | total protein half-life in vivo [6] | total protein half-life in vivo [7] | total protein half-life in vivo [8] | total protein half-life in vivo [9] | total protein half-life in vivo [10] | total protein half-life in vivo [11] | total protein half-life in vivo [12]
MEISFTRVALLAAALFFVGCDQKPQPAKTHATEVTVLEGKTMGTFWRASIPGIDAKRSAELKEKIQTQLDADDQLLSTYKKDSALMRFNDSQSLSPWPVSEAMADIVTTSLRIGAKTDGAMDITVGPLVNLWGFGPEQQPVQIPSQEQIDAMKAKTGLQHLTVINQSHQQYLQKDLPDLYVDLSTVGEGYAADHLARLMEQEGISRYLVSVGGALNSRGMNGEGLPWRVAIQKPTDKENAVQAVVDINGHGISTSGSYRNYYELDGKRLSHVIDPQTGRPIEHNLVSVTVIAPTALEADAWDTGLMVLGPEKAKEVVRREGLAVYMITKEGDSFKTWMSPQFKSFLVSEKN [P0AB85] | 6.34 ± 0.12 h | 6.53 ± 0.012 h | 5.8 ± 0.66 h | 6.9 ± 0.33 h | 5.97 ± 0.26 h | 2.9 ± 0.21 h | 6.95 ± 0.84 h | 11.9 ± 0.74 h | 6.29 ± 0.19 h | 12.3 ± 1.8 h | 6.3 ± 1.1 h | 13.4 ± 0.18 h
MEKDYLRISSTVLVSLLFGLALVLVNSWFNQPGVEEVVPRSTYLMVMIALFFIDTVAFIFMQLYFIYDRRQFSNCVLSLAFLSCLIYFVITVIIIQQIIEERLTSSVVQNDIAIYYLFRQMSLCILIFLALVNKVSENTKQRNLFSKKMTLCISLFFVFGGPIVAHILSSHYESYNLHIAELTNENGQVVWKASYVTIMIFMWLTLLSVNLYFNGLRYDIWNGVTVIAFCAVLYNISLLFMSRYSVSTWYISRTIEVVSKLTVMVIFMCHIFSALRVTKNIAHRDPLTNIFNRNYFFNELTVQSASAQKTPYCVMIMDIDHFKKVNDTWGHPVGDQVIKTVVNIIGKSIRPDDLLARVGGEEFGVLLTDIDTERAKALAERIRENVERLTGDNPEYAIPQKVTISIGAVVTQENALNPNEIYRLADNALYEAKETGRNKVVVRDVVNFCESP |  |  |  |  |  | 2.9 h |  |  |  |  |  | 
MEKEQLIEIANTIMPFGKYKGRRLIDLPEEYLLWFARKDEFPAGKLGELMQITLLIKTEGLTQLVQPLKRPL [P0AD40] | 6.16 ± 0.29 h |  |  |  |  |  | 5.09 h | 6.67 h |  |  | 3.3 h | 8.7 ± 2.7 h
MEKGTVKWFNNAKGFGFICPEGGGEDIFAHYSTIQMDGYRTLKAGQSVQFDVHQGPKGNHASVIVPVEVEAAVA [P0A968] | 2.08 h | 1.11 ± 0.089 h | 0.144 h |  |  | 0.333 ± 0.022 h | 0.386 h | 0.224 h |  |  |  | 
MEKKHIYLFCSAGMSTSLLVSKMRAQAEKYEVPVIIEAFPETLAGEKGQNADVVLLGPQIAYMLPEIQRLLPNKPVEVIDSLLYGKVDGLGVLKAAVAAIKKAAAN | 4.43 ± 0.066 h | 3.28 ± 0.13 h | 2.92 ± 0.14 h | 4.05 ± 0.47 h | 3.16 ± 0.091 h | 2.72 ± 0.065 h | 3.64 ± 0.58 h | 6 ± 0.41 h | 2.82 ± 0.2 h | 4.37 ± 1 h | 4.042 ± 0.031 h | 7.9 ± 0.83 h
MEKLRVGIVFGGKSAEHEVSLQSAKNIVDAIDKSRFDVVLLGIDKQGQWHVSDASNYLLNADDPAHIALRPSATSLAQVPGKHEHQLIDAQNGQPLPTVDVIFPIVHGTLGEDGSLQGMLRVANLPFVGSDVLASAACMDKDVTKRLLRDAGLNIAPFITLTRANRHNISFAEVESKLGLPLFVKPANQGSSVGVSKVTSEEQYAIAVDLAFEFDHKVIVEQGIKGREIECAVLGNDNPQASTCGEIVLTSDFYAYDTKYIDEDGAKVVVPAAIAPEINDKIRAIAVQAYQTLGCAGMARVDVFLTPENEVVINEINTLPGFTNISMYPKLWQASGLGYTDLITRLIELALERHAADNALKTTM [P0A6J8] | 4.83 ± 0.18 h | 5.65 ± 1.4 h | 4.95 ± 0.063 h | 6.41 ± 1.5 h | 4.9 ± 0.21 h | 2.99 ± 0.12 h |  | 10.5 ± 0.68 h | 4.89 ± 0.086 h | 8.61 ± 0.1 h | 5.56 ± 0.49 h | 11.5 ± 0.22 h
MEKNNEVIQTHPLVGWDISTVDSYDALMLRLHYQTPNKSEQEGTEVGQTLWLTTDVARQFISILEAGIAKIESGDFQVNEYRRH [P0AB33] | 4.09 h |  |  |  |  |  |  |  |  |  |  | 
MEKYLHLLSRGDKIGLTLIRLSIAIVFMWIGLLKFVPYEADSITPFVANSPLMSFFYEHPEDYKQYLTHEGEYKPEARAWQTANNTYGFSNGLGVVEVIIALLVLANPVNRWLGLLGGLMAFTTPLVTLSFLITTPEAWVPALGDAHHGFPYLSGAGRLVLKDTLMLAGAVMIMADSAREILKQRSNESSSTLKTEY |  |  |  |  | 5.11 h |  |  | 12.5 h |  | 6.8 h |  | 
MELIFLGTSAGVPTRTRNVTAILLNLQHPTQSGLWLFDCGEGTQHQLLHTAFNPGKLDKIFISHLHGDHLFGLPGLLCSRSMSGIIQPLTIYGPQGIREFVETALRISGSWTDYPLEIVEIGAGEILDDGLRKVTAYPLEHPLECYGYRIEEHDKPGALNAQALKAAGVPPGPLFQELKAGKTITLEDGRQINGADYLAAPVPGKALAIFGDTGPCDAALDLAKGVDVMVHEATLDITMEAKANSRGHSSTRQAATLAREAGVGKLIITHVSSRYDDKGCQHLLRECRSIFPATELANDFTVFNV [P0A8V0] | 4.1 ± 0.62 h | 5.44 ± 1 h | 4.51 ± 0.3 h | 5.43 ± 0.51 h | 3.918 ± 0.011 h | 3.01 ± 0.12 h | 5.64 ± 0.69 h | 10 ± 0.64 h | 3.93 ± 0.28 h | 7.42 ± 0.32 h | 5.54 ± 1.4 h | 11.3 ± 2.1 h
